For one substance, binding signal (frequency of static binding) and binding signal (frequency of translocation) results are on record in PMC12589613.

What all share (assay): single-molecule TIRF
One data set deals with MDA5(Q57E) (human). The following applies: biotin on annealed RNA linkers 1 and 2; smTIRF imaging buffer, salt, pH and temperature not given in the material; proteins 3-100 nM, with or without ATP or ADPCP.
The test system of a further data set is MDA5 (human). The following applies: biotin on annealed RNA linkers 1 and 2, smTIRF imaging buffer, salt, pH and temperature not given in the material, proteins 3-100 nM, with or without ATP or ADPCP.
A further data set deals with MDA5ΔN (human). Conditions: biotin on annealed RNA linkers 1 and 2; smTIRF imaging buffer, salt, pH and temperature not given in the material; proteins 3-100 nM, with or without ATP or ADPCP.

Take 11.6-kb dsRNA: the binding signal (frequency of static binding) came to 0.086 in the data set with MDA5(Q57E) (human); 0.337 in the data set on MDA5 (human) (ADPCP, translocation 0); 0.022 with MDA5 (human); 0.136 in the data set on MDA5 (human) (no ATP, translocation 0); 0.105 in the data set on MDA5ΔN (human). Moreover, the binding signal (frequency of translocation) in the data set on MDA5(Q57E) (human) was 0.527; in the data set with MDA5 (human), 0.114; with MDA5ΔN (human) it was 1.42.
